Test results from patent US9176064B2, “Bisubstrate fluorescent probes for protein kinase CK2” (University of Tartu, priority 2012, dated 2015).
Where a SMILES comes first, the peptide text is derived from it. [ ]: non-standard residue; d: D form. The star is where a group is joined. X1 = O=C(CCCCCCCn1cnc2c(Br)c(Br)c(Br)c(Br)c21)*

Legend:
Test in all cases: Kinase panel residual activity
Assay type in all cases: biochemical
Conditions in all cases: compound at 1 micromolar
MKK1 = MKK1 (Homo sapiens, UniProt Q02750)
JNK1 = JNK1 (Homo sapiens, UniProt P45983)
p38b MAPK = p38b MAPK (Homo sapiens, UniProt Q15759)
ERK8 = target: T1, ERK8 (Homo sapiens, UniProt Q8TD08)
T1 sequence (Q8TD08 1-544): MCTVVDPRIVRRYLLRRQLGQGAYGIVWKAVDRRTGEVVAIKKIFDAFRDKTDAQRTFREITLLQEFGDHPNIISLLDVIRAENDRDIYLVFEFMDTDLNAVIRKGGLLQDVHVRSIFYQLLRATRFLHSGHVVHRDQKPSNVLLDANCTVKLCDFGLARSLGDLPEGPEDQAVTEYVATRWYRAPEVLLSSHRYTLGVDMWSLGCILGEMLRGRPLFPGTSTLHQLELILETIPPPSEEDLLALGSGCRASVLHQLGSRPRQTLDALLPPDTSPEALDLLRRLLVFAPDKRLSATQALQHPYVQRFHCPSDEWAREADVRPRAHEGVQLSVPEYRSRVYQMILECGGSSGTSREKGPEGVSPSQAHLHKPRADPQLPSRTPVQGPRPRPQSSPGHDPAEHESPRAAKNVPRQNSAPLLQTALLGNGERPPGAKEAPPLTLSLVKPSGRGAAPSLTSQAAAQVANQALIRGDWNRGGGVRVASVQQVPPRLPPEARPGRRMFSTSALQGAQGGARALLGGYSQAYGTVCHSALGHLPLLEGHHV

CK1δ = CK1δ (Homo sapiens, UniProt P48730)
PKCγ = PKCγ (Homo sapiens, UniProt P05129)
Lck = Lck (Homo sapiens, UniProt P06239)
PKBa = PKBa (Homo sapiens, UniProt P31749)
ABL = ABL (Homo sapiens, UniProt P00519)
MINK1 = MINK1 (Homo sapiens, UniProt Q8N4C8)
EPH-A4 = EPH-A4 (Homo sapiens, UniProt P54764)
MELK = MELK (Homo sapiens, UniProt Q14680)
IKKe = target: T2, IKKe (Homo sapiens, UniProt Q14164)
T2 sequence (Q14164 1-716): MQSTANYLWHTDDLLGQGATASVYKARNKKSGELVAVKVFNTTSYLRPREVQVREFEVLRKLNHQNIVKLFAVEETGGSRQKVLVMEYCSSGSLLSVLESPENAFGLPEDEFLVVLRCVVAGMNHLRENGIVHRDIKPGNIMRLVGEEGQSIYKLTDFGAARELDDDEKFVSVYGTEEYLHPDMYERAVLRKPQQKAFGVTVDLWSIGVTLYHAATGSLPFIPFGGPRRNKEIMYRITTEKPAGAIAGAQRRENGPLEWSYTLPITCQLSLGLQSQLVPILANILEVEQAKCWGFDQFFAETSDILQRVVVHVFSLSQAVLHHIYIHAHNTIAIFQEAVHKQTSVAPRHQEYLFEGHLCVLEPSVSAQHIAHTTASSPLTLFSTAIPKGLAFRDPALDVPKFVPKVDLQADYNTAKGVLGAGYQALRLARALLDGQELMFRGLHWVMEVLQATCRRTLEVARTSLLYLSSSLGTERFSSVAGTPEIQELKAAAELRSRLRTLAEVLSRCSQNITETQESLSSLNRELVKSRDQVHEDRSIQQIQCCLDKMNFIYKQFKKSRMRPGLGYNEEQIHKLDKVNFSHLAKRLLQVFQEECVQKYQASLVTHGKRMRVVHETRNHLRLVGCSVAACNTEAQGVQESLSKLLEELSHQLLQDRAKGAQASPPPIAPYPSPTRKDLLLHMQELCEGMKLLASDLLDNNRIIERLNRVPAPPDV

TBK1 = target: T3, TBK1 (Homo sapiens, UniProt Q9UHD2)
T3 sequence (Q9UHD2 1-729): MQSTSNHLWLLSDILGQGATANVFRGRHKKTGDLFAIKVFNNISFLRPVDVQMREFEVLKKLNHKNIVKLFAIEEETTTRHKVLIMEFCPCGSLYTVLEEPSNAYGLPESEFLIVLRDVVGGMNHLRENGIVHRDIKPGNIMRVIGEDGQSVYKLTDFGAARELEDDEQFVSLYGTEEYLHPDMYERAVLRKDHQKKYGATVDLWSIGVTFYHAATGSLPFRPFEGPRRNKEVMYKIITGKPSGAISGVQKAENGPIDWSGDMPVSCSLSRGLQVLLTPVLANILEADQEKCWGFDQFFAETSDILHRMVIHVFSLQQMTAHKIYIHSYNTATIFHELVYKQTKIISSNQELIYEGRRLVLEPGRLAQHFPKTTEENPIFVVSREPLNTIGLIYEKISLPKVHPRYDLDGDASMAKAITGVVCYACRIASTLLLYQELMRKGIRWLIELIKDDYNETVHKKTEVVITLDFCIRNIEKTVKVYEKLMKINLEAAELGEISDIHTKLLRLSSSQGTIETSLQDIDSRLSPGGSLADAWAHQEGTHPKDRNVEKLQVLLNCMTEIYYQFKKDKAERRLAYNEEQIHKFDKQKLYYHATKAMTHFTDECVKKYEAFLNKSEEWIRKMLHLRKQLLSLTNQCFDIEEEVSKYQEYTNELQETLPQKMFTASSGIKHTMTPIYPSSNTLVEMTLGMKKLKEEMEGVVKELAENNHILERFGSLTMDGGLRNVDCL

PKCa = PKCa (Homo sapiens, UniProt P17252)

Sequence of MKK1 (Q02750 whole entry, species assumed): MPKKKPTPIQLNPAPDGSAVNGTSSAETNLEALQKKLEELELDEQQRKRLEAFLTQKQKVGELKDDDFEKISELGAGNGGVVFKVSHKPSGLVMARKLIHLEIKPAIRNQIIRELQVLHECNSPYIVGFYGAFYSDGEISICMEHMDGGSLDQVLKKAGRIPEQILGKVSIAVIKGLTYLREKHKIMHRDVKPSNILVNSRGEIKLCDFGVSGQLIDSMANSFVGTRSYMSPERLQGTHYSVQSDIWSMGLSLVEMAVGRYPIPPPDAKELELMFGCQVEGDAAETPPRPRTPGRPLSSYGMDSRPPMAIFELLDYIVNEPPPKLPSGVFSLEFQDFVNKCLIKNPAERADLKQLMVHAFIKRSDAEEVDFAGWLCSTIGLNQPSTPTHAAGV
Sequence of Lck (P06239 whole entry, species assumed): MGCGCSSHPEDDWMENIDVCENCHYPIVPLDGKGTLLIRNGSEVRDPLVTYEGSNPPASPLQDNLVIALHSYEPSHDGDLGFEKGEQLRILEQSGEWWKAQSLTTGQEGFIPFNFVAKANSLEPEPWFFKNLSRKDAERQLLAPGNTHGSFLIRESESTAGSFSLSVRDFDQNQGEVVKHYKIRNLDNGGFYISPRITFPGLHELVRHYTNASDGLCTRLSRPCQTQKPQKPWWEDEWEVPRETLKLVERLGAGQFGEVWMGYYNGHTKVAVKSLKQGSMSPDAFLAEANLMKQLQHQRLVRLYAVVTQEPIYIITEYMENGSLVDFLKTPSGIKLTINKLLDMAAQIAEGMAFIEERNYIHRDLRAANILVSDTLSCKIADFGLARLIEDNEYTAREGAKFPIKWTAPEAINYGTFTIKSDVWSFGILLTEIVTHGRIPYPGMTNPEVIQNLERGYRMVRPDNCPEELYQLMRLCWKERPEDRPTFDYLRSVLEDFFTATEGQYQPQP
Sequence of MINK1 (Q8N4C8 whole entry, species assumed): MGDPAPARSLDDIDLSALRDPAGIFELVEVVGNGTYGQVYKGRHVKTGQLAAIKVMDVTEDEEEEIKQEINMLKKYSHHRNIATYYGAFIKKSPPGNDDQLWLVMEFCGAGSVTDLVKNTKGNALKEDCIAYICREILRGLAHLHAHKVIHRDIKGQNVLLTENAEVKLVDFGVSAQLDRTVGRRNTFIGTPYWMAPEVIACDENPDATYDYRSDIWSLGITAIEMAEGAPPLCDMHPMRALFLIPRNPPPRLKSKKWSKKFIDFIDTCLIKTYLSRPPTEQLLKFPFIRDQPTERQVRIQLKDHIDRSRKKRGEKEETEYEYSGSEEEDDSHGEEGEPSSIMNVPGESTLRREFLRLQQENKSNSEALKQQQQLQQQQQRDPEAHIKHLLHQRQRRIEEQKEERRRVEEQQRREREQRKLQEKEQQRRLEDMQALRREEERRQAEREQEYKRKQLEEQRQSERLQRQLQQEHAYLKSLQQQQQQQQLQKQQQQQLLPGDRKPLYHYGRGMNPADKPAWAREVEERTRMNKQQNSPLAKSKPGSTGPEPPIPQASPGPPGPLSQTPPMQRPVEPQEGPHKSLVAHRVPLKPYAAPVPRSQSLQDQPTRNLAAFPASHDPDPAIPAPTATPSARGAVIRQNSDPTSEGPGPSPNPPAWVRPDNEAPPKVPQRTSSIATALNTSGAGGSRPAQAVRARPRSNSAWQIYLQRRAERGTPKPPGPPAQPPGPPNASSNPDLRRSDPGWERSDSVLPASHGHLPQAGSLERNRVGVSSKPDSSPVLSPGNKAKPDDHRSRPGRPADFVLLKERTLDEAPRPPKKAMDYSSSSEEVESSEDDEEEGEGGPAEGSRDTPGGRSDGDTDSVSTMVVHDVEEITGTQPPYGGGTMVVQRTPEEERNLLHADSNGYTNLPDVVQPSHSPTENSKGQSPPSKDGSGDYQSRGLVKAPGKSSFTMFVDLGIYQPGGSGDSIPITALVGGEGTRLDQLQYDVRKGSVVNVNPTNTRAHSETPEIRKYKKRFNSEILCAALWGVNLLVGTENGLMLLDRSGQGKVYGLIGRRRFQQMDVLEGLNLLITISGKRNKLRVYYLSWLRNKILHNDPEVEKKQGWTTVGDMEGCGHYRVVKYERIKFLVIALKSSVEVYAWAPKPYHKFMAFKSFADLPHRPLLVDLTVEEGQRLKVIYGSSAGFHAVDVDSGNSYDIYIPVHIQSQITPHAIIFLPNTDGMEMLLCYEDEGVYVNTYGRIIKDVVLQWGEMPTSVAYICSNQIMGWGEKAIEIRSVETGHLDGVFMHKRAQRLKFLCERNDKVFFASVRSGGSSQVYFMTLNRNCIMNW
Sequence of JNK1 (P45983 whole entry, species assumed): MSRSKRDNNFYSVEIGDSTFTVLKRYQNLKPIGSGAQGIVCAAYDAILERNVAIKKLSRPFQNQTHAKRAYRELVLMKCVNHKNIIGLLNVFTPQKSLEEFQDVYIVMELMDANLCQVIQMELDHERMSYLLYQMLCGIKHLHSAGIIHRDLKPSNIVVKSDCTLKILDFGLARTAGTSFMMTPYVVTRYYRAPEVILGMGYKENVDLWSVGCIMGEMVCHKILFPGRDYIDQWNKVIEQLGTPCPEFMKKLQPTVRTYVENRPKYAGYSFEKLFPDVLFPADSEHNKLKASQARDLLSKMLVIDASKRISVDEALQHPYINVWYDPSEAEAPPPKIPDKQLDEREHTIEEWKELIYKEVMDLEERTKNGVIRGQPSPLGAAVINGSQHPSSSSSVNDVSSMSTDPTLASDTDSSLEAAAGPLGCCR
Sequence of EPH-A4 (P54764 20-986, species assumed): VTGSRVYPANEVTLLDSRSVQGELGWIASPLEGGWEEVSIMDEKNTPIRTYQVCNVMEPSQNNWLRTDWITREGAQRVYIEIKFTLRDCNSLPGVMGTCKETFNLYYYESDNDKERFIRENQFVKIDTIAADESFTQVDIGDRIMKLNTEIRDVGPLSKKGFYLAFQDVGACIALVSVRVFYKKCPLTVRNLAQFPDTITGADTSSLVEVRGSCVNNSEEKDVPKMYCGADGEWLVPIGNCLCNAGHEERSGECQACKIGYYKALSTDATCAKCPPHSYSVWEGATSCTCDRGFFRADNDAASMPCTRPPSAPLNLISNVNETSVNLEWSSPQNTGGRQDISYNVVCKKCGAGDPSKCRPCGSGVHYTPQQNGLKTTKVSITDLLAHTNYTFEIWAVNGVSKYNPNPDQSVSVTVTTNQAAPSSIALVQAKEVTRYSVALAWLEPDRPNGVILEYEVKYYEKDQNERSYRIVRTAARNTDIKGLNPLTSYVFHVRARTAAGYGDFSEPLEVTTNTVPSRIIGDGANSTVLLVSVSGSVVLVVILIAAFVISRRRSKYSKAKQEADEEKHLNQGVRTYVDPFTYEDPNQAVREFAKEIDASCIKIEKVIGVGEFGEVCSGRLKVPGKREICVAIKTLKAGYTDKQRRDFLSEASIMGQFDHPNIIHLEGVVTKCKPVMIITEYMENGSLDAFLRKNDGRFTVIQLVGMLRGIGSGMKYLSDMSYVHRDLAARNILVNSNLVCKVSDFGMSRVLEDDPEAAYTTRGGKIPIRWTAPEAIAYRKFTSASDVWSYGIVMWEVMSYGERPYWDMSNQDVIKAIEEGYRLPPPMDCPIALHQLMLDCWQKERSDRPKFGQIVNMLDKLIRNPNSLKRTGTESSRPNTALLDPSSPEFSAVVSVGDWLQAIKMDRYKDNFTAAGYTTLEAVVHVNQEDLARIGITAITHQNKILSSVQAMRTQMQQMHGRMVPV
Sequence of CK1δ (P48730 whole entry): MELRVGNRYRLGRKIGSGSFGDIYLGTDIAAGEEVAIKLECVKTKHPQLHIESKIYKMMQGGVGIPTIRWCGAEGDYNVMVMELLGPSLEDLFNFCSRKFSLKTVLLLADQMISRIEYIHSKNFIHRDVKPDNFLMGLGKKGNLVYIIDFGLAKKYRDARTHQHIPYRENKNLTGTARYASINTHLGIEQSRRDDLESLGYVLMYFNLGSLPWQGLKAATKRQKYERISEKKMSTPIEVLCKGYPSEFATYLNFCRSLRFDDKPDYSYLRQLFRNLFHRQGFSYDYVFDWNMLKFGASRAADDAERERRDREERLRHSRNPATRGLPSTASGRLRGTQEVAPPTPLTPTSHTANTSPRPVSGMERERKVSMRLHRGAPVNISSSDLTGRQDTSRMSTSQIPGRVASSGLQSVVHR

NCCCC[C@H](NC(=O)[C@H](CC(=O)O)NC(=O)[C@H](CC(=O)O)NC(=O)[C@H](CC(=O)O)NC(=O)[C@H](CC(=O)O)NC(=O)[C@H](CC(=O)O)NC(=O)[C@@H](CC(=O)O)NC(=O)CCCCCCCn1cnc2c(Br)c(Br)c(Br)c(Br)c21)C(=O)O [TBBI-OcA-(D-Asp)-(L-Asp)5-(L-Lys)-OH] (X1-[dD]DDDDDK-OH)
remaining activity at 1 µM (MKK1): 101% | remaining activity at 1 µM (JNK1): 103% | remaining activity at 1 µM (p38b MAPK): 122% | remaining activity at 1 µM (ERK8): 25% | remaining activity at 1 µM (CK1δ): 49% | remaining activity at 1 µM (PKCγ): 106% | remaining activity at 1 µM (Lck): 62% | remaining activity at 1 µM (PKBa): 73% | remaining activity at 1 µM (ABL): 101% | remaining activity at 1 µM (MINK1): 139% | remaining activity at 1 µM (EPH-A4): 117% | remaining activity at 1 µM (MELK): 92% | remaining activity at 1 µM (IKKe): 84% | remaining activity at 1 µM (TBK1): 93% | remaining activity at 1 µM (PKCa): 94%
